From patent publication US20230312646A1, “ANTIBACTERIAL PEPTIDES” (priority 2020, published 2023)
Where two headings read alike, the source gives them in different places. Square brackets hold non-standard residues; d marks the D form. Cha = N[C@@H](CC1CCCCC1)C(=O)O

Assays:
[1] = target: T1, Escherichia coli sliding clamp (bacterial processivity factor, dnaN gene product) (Escherichia coli), P0A988; test: kinITC
[2] = target: T1, Escherichia coli sliding clamp …; test: ITC, 25 C
[3] = target: Acinetobacter baumannii sliding clamp (Acinetobacter baumannii); test: ITC, 25 C
[4] = target: T1, Escherichia coli sliding clamp …; test: ITC, 25 C; remark: listed apart in the source
[5] = target: T2, Pseudomonas aeruginosa sliding clamp (Pseudomonas aeruginosa), Q9I7C4; test: ITC, 25 C
T2 chain: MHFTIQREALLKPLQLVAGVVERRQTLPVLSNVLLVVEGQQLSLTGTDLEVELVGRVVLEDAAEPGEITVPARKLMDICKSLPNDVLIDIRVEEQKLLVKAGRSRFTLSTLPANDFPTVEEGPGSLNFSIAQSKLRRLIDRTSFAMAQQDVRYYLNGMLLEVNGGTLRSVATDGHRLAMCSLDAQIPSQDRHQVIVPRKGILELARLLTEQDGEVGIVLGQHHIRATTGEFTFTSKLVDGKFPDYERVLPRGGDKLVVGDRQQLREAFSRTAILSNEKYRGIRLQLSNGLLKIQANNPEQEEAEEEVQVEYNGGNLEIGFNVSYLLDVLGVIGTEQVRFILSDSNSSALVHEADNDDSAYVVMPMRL

B1: Ac-Gln-Cha-Asp-Leu-Phe-OH (peptide 1) (peptide)
peptide: Ac-Q[Cha]DLF-OH
For B1, the koff [1] was 0.0074 s⁻¹, the kon [1] was 40000 M⁻¹ s⁻¹ and the Kd [2] was 194 nM. It also gave a ΔG [2] of -9.2 kcal/mol, a Kd [3] of 655 nM and a Kd [4] of 170 nM. It also gave a Kd [5] of 600 nM.
